Test results from patent CN117751139A (YONGXIAN PHARMACEUTICAL CO LTD; UNIV AIX MARSEILLE; INST …, dated 2024).
One block for each binder: values may come before it.

Experiments:
[1] = target: T1, Nectin-1 extracellular domain Fc fusion recombinant protein (Nec1-VCC) (UniProt Q15223 31-355, limits assumed); assay: ELISA, Nec1-VCC coated on plate, peroxidase-conjugated Ch-15A7.5
T1 construct: extracellular domain; also called Nectin-1-VCC-Fc; not shown: Fc part
T1 sequence (looked up): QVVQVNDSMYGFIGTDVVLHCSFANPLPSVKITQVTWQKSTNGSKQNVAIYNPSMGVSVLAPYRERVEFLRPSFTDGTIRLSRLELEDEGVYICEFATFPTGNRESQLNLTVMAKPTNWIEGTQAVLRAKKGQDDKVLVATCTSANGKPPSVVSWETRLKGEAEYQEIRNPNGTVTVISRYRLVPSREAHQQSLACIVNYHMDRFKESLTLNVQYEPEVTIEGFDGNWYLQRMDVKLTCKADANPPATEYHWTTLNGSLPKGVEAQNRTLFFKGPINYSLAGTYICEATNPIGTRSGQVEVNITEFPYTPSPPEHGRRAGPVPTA

[2] = target: T2, Nectin-4 extracellular domain Fc fusion recombinant protein (Nec4-VCC) (human, UniProt Q96NY8 32-349); assay: statement in the legend of the competition ELISA on coated Nec4-VCC
T2 construct: extracellular domain; also called Nectin-4-VCC-Fc; not shown: Fc part
T2 sequence (looked up): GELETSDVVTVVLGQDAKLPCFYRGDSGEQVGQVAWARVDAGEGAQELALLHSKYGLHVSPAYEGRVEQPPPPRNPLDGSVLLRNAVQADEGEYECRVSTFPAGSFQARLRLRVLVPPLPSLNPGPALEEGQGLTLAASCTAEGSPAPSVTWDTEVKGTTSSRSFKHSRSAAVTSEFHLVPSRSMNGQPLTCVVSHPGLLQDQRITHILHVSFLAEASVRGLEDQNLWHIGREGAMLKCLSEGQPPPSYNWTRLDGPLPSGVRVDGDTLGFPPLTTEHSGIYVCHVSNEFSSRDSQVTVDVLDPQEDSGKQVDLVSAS

[3] = target: T3, Nectin-4 expressed by normal differentiated human keratinocytes (NHEK) (human, UniProt Q96NY8 32-510); assay: flow cytometry on normal differentiated human keratinocytes (NHEK), 8 pM-33 nM; reference of the comparison
T3 construct: whole, on cells; also called Nectin-4 on NHEK; keratinocyte Nectin-4
T3 sequence (looked up): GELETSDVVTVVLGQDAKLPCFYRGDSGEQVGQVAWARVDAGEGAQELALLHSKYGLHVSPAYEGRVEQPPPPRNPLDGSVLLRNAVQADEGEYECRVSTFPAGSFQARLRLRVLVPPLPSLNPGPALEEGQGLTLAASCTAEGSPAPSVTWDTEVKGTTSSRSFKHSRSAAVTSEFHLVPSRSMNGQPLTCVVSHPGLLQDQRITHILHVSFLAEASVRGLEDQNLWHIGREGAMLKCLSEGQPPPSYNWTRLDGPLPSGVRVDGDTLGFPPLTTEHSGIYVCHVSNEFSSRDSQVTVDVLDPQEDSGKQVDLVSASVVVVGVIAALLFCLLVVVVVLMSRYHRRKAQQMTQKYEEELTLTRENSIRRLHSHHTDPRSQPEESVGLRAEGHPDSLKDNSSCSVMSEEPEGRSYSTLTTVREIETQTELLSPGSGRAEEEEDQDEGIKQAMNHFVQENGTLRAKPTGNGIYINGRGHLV

[4] = target: T4, human Nectin-4 on CHO cells transfected with human Nectin-4 cDNA (human, UniProt Q96NY8 32-510); assay: flow cytometry competition on CHO cells with human Nectin-4; competitor Nec1-VCC
T4 construct: whole, on cells
T4 sequence (looked up): T3 sequence (looked up)

[5] = target: T5, human Nectin-4 with N-terminal Flag epitope tag, on transfected MDA-MB231 cells (human, UniProt Q96NY8 32-510); assay: flow cytometry on MDA-MB231 cells transfected with N-terminally Flag-tagged Nectin-4
T5 construct: whole, on cells; also called PVRL4; PRR4
T5 sequence (looked up): T3 sequence (looked up)

- binding result [1]: no binding (tested: 10nM)
B1: Ch-15A7.5 (antibody, V domains shown)
VH: EVKLVESGGGLVQPGGSRKLSCAASGFTFSNYGMAWVRQAPGKGPEWVAFISNLAYGINYADTVTGRFTISRENAKNTLYLEMRSLRSEDTAMYYCARGARATGWFAYWGQGTLVTVSA
VL: DIVMTQSQKFMSTSIGDRVSVTCKASQNVDTHVAWYQEKPGQSPKALIYSASYRYSGVPDRFTGSGSGTDFTLTISNVQSEDLADYFCQQYNSYPLTFGGGTKLEIK
notes: also called Ch-15A7.5 mAb; Ch-15A7 mAb

- binding result [2]: binds
B2: HA22 (enfortumab) (antibody, V domains shown)
VH: EVQLVESGGGLVQPGGSLRLSCAASGFTFSSYNMNWVRQAPGKGLEWVSYISSSSSTIYYADSVKGRFTISRDNAKNSLSLQMNSLRDEDTAVYYCARAYYYGMDVWGQGTTVTVSS
VL: DIQMTQSPSSVSASVGDRVTITCRASQGISGWLAWYQQKPGKAPKFLIYAASTLQSGVPSRFSGSGSGTDFTLTISSLQPEDFATYYCQQANSFPPTFGGGTKVEIK
notes: also called 恩弗妥单抗; HA22 mAb

- binding result [3]: binds
- binding result [4]: binds
- binding result [5]: binds
B3: Ch-5A12.2 (antibody, V domains shown)
VH: QIQLQQSGAELVKPGASVTLSCKTSGFTFNSMYISWLKQKPGQSLEWIAWIYAGTGGTRFNQKFTGKVQLTVDTSSSTAYMQFSSLTTDDSAIYYCAIRSGFVPMDYWGQGTSVTVSS
VL: SIVMTQTPKFLLVSAGDRVTITCKASQSVSNDVAWYQQKPGQSPKLLIYYASNRYTGVPDRFTGSGYGTDFTFTISTVQAEDLAVYFCQQDYSSPWTFGGGTKLEIK
notes: also called 5A12.2 mAb; chimeric 5A12.2
